Assay results from PMC9800250.
Where a chain is given by its changes, count along the chain named. In names and notes the source's numbering stands.

B1: ScGPPC2MT (GPP C2-methyltransferase) (Streptomyces coelicolor A3(2)) (protein)
chain: MTTETTTATATAKIPAPATPYQEDIARYWNNEARPVNLRLGDVDGLYHHHYGIGPVDRAALGDPEHSEYEKKVIAELHRLESAQAEFLMDHLGQAGPDDTLVDAGCGRGGSMVMAHRRFGSRVEGVTLSAAQADFGNRRARELRIDDHVRSRVCNMLDTPFDKGAVTASWNNESTMYVDLHDLFSEHSRFLKVGGRYVTITGCWNPRYGQPSKWVSQINAHFECNIHSRREYLRAMADNRLVPHTIVDLTPDTLPYWELRATSSLVTGIEKAFIESYRDGSFQYVLIAADRV
B2: ScGPPC2MT (GPP C2-methyltransferase) (Streptomyces coelicolor A3(2); F222Y/G202M) (protein)
chain: B1 chain with G202M, F222Y

What was measured:
[1] = substrate: CC(C)=CCC/C(C)=C/COP(=O)(O)OP(=O)(O)O; test: HPLC of S-adenosylhomocysteine formation, steady state; type: biochemical, Streptomyces coelicolor; conditions: 100 μM SAM, 10 mM MgCl2, pH 7.0, 30°C, 20 min, 2 μM enzyme
[2] = substrate: CC(C)=CCOP(=O)(O)OP(=O)(O)O; test: as above; type: biochemical, Streptomyces coelicolor; conditions: 100 μM SAM, 10 mM MgCl2, pH 7.0, 30°C, 20 min, 5 μM enzyme

| Protein | Km [1] [µM] | kcat [1] | Km [2] [µM] | kcat [2] |
| --- | --- | --- | --- | --- |
| B1 | 0.88 ± 0.09 | (4.90 ± 0.16) × 10^−4 s^−1 | – | – |
| B2 | – | – | 5.33 ± 0.81 | (9.59 ± 0.25) × 10^−5 s^−1 |
